Reference: paper PMC5740061 (Nature Communications, 2017)

B1: SDGF-TB1G1 (TB1G1 displayed on 293F cells) [designed binder] / Biotinylated His-Avi-TEAD1(194–411) [modified: biotin (BirA-500 kit); biotin (BirA-500 kit)] [not stated] (parent complex)
chain 1: PDEYIERAKECCKKGDIQCCLRYFEESGDPNVMLICLFCP
chain 2: RSIGTTKLRLVEFSAFLEQQRDPDSYNKHLFVHIGHANHSYSDPLLESVDIRQIYDKFPEKKGGLKELFGKGPQNAFFLVKFWADLNCNIQDDAGAFYGVTSQYESSENMTVTCSTKVCSFGKQVVEKVETEYARFENGRFVYRINRSPMCEYMINFIHKLKHLPEKYMMNSVLENFTILLVVTNRDTQETLLCMACVFEVSNSEHGAQHHIYRLVKD

Variants of: B1
Test: not given
Variant chain 1 E25A has a ratio to parent of roughly 0.07.
In the case of chain 1 PDEYIERAKESSKKGDIQSSLRYFEESGDPNVMLISLFSP [chain 1 C11S, chain 1 C12S, chain 1 C19S, chain 1 C20S, chain 1 C36S, chain 1 C39S], the ratio to parent is reported as roughly 0.01.

Variants of: B1
Test: mammalian (293F) surface display of a site-saturation mutagenesis library (every non-Cys single substitution), FACS sorting on biotinylated TEAD1 YBD, two sorting rounds, Illumina sequencing with perfect-match mapping; 20 nM biotinylated TEAD, monovalent 2-step stain (TEAD alone 30 min at 4 °C, dilute, pellet, then 20 nM streptavidin-Alexa Fluor 647), flow sorting on a BD Aria
For chain 1 PDEYIERYKECCKKGDIQCCLRYFEESGDPNVMLICLFCP [chain 1 A8Y], the enrichment was -3.35 log2 (fold change of variant abundance after two TEAD sorts vs input, normalised to TB1G1).
In the case of chain 1 PDEYIERQKECCKKGDIQCCLRYFEESGDPNVMLICLFCP [chain 1 A8Q], the enrichment is reported as -6 log2 (fold change of variant abundance after two TEAD sorts vs input, normalised to TB1G1).
In the case of chain 1 PDEYIERGKECCKKGDIQCCLRYFEESGDPNVMLICLFCP [chain 1 A8G], the enrichment is reported as -4.11 log2 (fold change of variant abundance after two TEAD sorts vs input, normalised to TB1G1).
With chain 1 PDEYIERRKECCKKGDIQCCLRYFEESGDPNVMLICLFCP [chain 1 A8R] the enrichment was -5.84 log2 (fold change of variant abundance after two TEAD sorts vs input, normalised to TB1G1).
In the case of chain 1 PDEYIERSKECCKKGDIQCCLRYFEESGDPNVMLICLFCP [chain 1 A8S], the enrichment is reported as -2.79 log2 (fold change of variant abundance after two TEAD sorts vs input, normalised to TB1G1).
chain 1 PDEYIERKKECCKKGDIQCCLRYFEESGDPNVMLICLFCP [chain 1 A8K] was tested, and the enrichment was -4.73 log2 (fold change of variant abundance after two TEAD sorts vs input, normalised to TB1G1).
chain 1 KDEYIERAKECCKKGDIQCCLRYFEESGDPNVMLICLFCP [chain 1 P1K] was tested, and the enrichment was -0.294 log2 (fold change of variant abundance after two TEAD sorts vs input, normalised to TB1G1).
In the case of chain 1 HDEYIERAKECCKKGDIQCCLRYFEESGDPNVMLICLFCP [chain 1 P1H], the enrichment is reported as -0.884 log2 (fold change of variant abundance after two TEAD sorts vs input, normalised to TB1G1).
For chain 1 EDEYIERAKECCKKGDIQCCLRYFEESGDPNVMLICLFCP [chain 1 P1E], the enrichment was 1.12 log2 (fold change of variant abundance after two TEAD sorts vs input, normalised to TB1G1).
chain 1 FDEYIERAKECCKKGDIQCCLRYFEESGDPNVMLICLFCP [chain 1 P1F] was tested, and the enrichment was -1.3 log2 (fold change of variant abundance after two TEAD sorts vs input, normalised to TB1G1).
For chain 1 QDEYIERAKECCKKGDIQCCLRYFEESGDPNVMLICLFCP [chain 1 P1Q], the enrichment was -0.836 log2 (fold change of variant abundance after two TEAD sorts vs input, normalised to TB1G1).
For chain 1 IDEYIERAKECCKKGDIQCCLRYFEESGDPNVMLICLFCP [chain 1 P1I], the enrichment was -2.27 log2 (fold change of variant abundance after two TEAD sorts vs input, normalised to TB1G1).
For chain 1 PDEYIEFAKECCKKGDIQCCLRYFEESGDPNVMLICLFCP [chain 1 R7F], the enrichment was -1.04 log2 (fold change of variant abundance after two TEAD sorts vs input, normalised to TB1G1).
In the case of chain 1 PDEYIEHAKECCKKGDIQCCLRYFEESGDPNVMLICLFCP [chain 1 R7H], the enrichment is reported as -0.322 log2 (fold change of variant abundance after two TEAD sorts vs input, normalised to TB1G1).
chain 1 PDEYIENAKECCKKGDIQCCLRYFEESGDPNVMLICLFCP [chain 1 R7N] was tested, and the enrichment was 0.343 log2 (fold change of variant abundance after two TEAD sorts vs input, normalised to TB1G1).
For chain 1 PDEYIEDAKECCKKGDIQCCLRYFEESGDPNVMLICLFCP [chain 1 R7D], the enrichment was -2.25 log2 (fold change of variant abundance after two TEAD sorts vs input, normalised to TB1G1).
In the case of chain 1 PDEYIEVAKECCKKGDIQCCLRYFEESGDPNVMLICLFCP [chain 1 R7V], the enrichment is reported as -2.31 log2 (fold change of variant abundance after two TEAD sorts vs input, normalised to TB1G1).
With chain 1 PDEYIEPAKECCKKGDIQCCLRYFEESGDPNVMLICLFCP [chain 1 R7P] the enrichment was -2.49 log2 (fold change of variant abundance after two TEAD sorts vs input, normalised to TB1G1).
With chain 1 PDEYIEQAKECCKKGDIQCCLRYFEESGDPNVMLICLFCP [chain 1 R7Q] the enrichment was -0.484 log2 (fold change of variant abundance after two TEAD sorts vs input, normalised to TB1G1).
In the case of chain 1 PDEYIEYAKECCKKGDIQCCLRYFEESGDPNVMLICLFCP [chain 1 R7Y], the enrichment is reported as -1.01 log2 (fold change of variant abundance after two TEAD sorts vs input, normalised to TB1G1).
chain 1 PDEYIEKAKECCKKGDIQCCLRYFEESGDPNVMLICLFCP [chain 1 R7K] was tested, and the enrichment was 0.473 log2 (fold change of variant abundance after two TEAD sorts vs input, normalised to TB1G1).
In the case of chain 1 PDEYIESAKECCKKGDIQCCLRYFEESGDPNVMLICLFCP [chain 1 R7S], the enrichment is reported as 0.311 log2 (fold change of variant abundance after two TEAD sorts vs input, normalised to TB1G1).
chain 1 PDEYIEGAKECCKKGDIQCCLRYFEESGDPNVMLICLFCP [chain 1 R7G] was tested, and the enrichment was 1.31 log2 (fold change of variant abundance after two TEAD sorts vs input, normalised to TB1G1).
chain 1 PDDYIERAKECCKKGDIQCCLRYFEESGDPNVMLICLFCP [chain 1 E3D] was tested, and the enrichment was 0.801 log2 (fold change of variant abundance after two TEAD sorts vs input, normalised to TB1G1).
With chain 1 PDHYIERAKECCKKGDIQCCLRYFEESGDPNVMLICLFCP [chain 1 E3H] the enrichment was -0.307 log2 (fold change of variant abundance after two TEAD sorts vs input, normalised to TB1G1).
With chain 1 PDGYIERAKECCKKGDIQCCLRYFEESGDPNVMLICLFCP [chain 1 E3G] the enrichment was -0.623 log2 (fold change of variant abundance after two TEAD sorts vs input, normalised to TB1G1).
With chain 1 PDRYIERAKECCKKGDIQCCLRYFEESGDPNVMLICLFCP [chain 1 E3R] the enrichment was -1.81 log2 (fold change of variant abundance after two TEAD sorts vs input, normalised to TB1G1).
For chain 1 PDVYIERAKECCKKGDIQCCLRYFEESGDPNVMLICLFCP [chain 1 E3V], the enrichment was -1.39 log2 (fold change of variant abundance after two TEAD sorts vs input, normalised to TB1G1).
With chain 1 PDAYIERAKECCKKGDIQCCLRYFEESGDPNVMLICLFCP [chain 1 E3A] the enrichment was -2.02 log2 (fold change of variant abundance after two TEAD sorts vs input, normalised to TB1G1).
With chain 1 PDEFIERAKECCKKGDIQCCLRYFEESGDPNVMLICLFCP [chain 1 Y4F] the enrichment was 0.668 log2 (fold change of variant abundance after two TEAD sorts vs input, normalised to TB1G1).
With chain 1 PDEHIERAKECCKKGDIQCCLRYFEESGDPNVMLICLFCP [chain 1 Y4H] the enrichment was -1.9 log2 (fold change of variant abundance after two TEAD sorts vs input, normalised to TB1G1).
With chain 1 PDEIIERAKECCKKGDIQCCLRYFEESGDPNVMLICLFCP [chain 1 Y4I] the enrichment was -0.405 log2 (fold change of variant abundance after two TEAD sorts vs input, normalised to TB1G1).
In the case of chain 1 PDEMIERAKECCKKGDIQCCLRYFEESGDPNVMLICLFCP [chain 1 Y4M], the enrichment is reported as -0.684 log2 (fold change of variant abundance after two TEAD sorts vs input, normalised to TB1G1).
With chain 1 PDETIERAKECCKKGDIQCCLRYFEESGDPNVMLICLFCP [chain 1 Y4T] the enrichment was -0.869 log2 (fold change of variant abundance after two TEAD sorts vs input, normalised to TB1G1).
chain 1 PDEAIERAKECCKKGDIQCCLRYFEESGDPNVMLICLFCP [chain 1 Y4A] was tested, and the enrichment was 0.259 log2 (fold change of variant abundance after two TEAD sorts vs input, normalised to TB1G1).
For chain 1 PDESIERAKECCKKGDIQCCLRYFEESGDPNVMLICLFCP [chain 1 Y4S], the enrichment was -0.738 log2 (fold change of variant abundance after two TEAD sorts vs input, normalised to TB1G1).
In the case of chain 1 PDEEIERAKECCKKGDIQCCLRYFEESGDPNVMLICLFCP [chain 1 Y4E], the enrichment is reported as -6.52 log2 (fold change of variant abundance after two TEAD sorts vs input, normalised to TB1G1).
